This experiment has as its target HLA-A2/…抗原复合物 (human). Kind of experiment: SPR, Biacore T200, antigen on SA chip, Fc fusion as analyte 1-20 nM, Bivalent Analyte model.

Drawing on CN110872347A (TIANJIN TIMMUNE BIOTECH INC, dated 2020), this text covers Kd, koff and kon for two molecules.

B1: 融合蛋白M3-D9-Fc (Fc fusion, not shown: a dimerising Fc or GST)
chain: VQLVETGGGLVQPGGSLRLSCAASGFTFSDYAIQWVRQAPGKGLGRVSYINSGGDTTYYADSVKGRFSIARDNAKNTVYLQMNSLKPEDTAVYYCYAGGYWGQGTQVTVSS
B1: the Kd worked out at 25 nM, the koff worked out at 0.0171 s⁻¹ and the association rate constant (kon) worked out at 678000 M⁻¹ s⁻¹.

B2: 融合蛋白M3-E7-Fc (Fc fusion, not shown: a dimerising Fc or GST)
chain: VQLVASGGGLVPPGGSLRLSCAASGRTFNVDAMAWFRQTRGKEREFVAAISRSGGSTYYADSVKGRFSISKDNAKNTMYLQMNSLKPEDTAIYYCAAAIYWRGSYYTEGNYDYWGQRTQVTVSS
B2 yielded a Kd of 9 nM, a dissociation rate constant (koff) of 0.0309 s⁻¹ and a kon of 3.43e+06 M⁻¹ s⁻¹.
